Two molecules from US20180011114A1 (PUBLIC UNIVERSITY CORPORATION NARA MEDICAL UNIVERSITY, published 2018) can be followed below.

One experiment has as its target T1, anti-FIXa-arm of ACE910.
T1 construct: Q499/J327; also called anti-FIXa side Fab of ACE910; anti-FIXa-F(ab')2
The experiment is described as follows: ELISA, hybridoma culture supernatant. The protocol: (§1) Mice and rats were immunized with anti-FIXa-F(ab′)2 or anti-FX-F(ab′)2. Cells obtained from the spleen removed from the mice or rats or from rat lymph nodes were subjected to cell fusion with mouse myeloma cells by following general methods to produce the hybridomas. The culture supernatants of the hybridomas were evaluated by ELISA which detects the binding of ACE910 to the anti-FIXa-arm or the anti-FX-arm, and ultimately, mouse antibodies, AQ8 and AQ1, and rat antibody, AQ512, which bind only to the anti-FIXa-arm but not to the anti-FX-arm of ACE910, and rat antibodies, AJ540, AJ114, AJ521, AJ522, and AJ541, which bind only to the anti-FX-arm but not to the anti-FIXa-arm of ACE910 were selected. In addition, the nucleotide sequences of the variable regions of the AQ8 antibody or the AJ540 antibody were analyzed. The nucleotide sequences of the variable regions of AQ8 and AJ540, and amino acid sequences predicted therefrom were analyzed using GENETYX Ver.9 (GENETYX CORPORATION).
In general terms: An ELISA detects its analyte on a solid surface through an enzyme-linked reagent.

The next experiment deals with T2, anti-FX-arm of ACE910.
T2 construct: also called anti-FX side Fab of ACE910; anti-FX-F(ab')2
T2 sequence (VH, as listed by the source, chain 1 of 2): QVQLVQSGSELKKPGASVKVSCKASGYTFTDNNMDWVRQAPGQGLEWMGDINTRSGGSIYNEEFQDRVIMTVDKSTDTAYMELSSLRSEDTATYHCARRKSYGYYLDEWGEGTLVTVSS
T2 sequence (VL, as listed by the source, chain 2 of 2): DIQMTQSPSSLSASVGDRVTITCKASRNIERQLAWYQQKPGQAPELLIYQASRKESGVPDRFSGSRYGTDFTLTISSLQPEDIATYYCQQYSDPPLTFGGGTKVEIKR
The experiment is described as follows: ELISA, hybridoma culture supernatant. The protocol:
as §1

T1 sequence (VH, as listed by the source, chain 1 of 2): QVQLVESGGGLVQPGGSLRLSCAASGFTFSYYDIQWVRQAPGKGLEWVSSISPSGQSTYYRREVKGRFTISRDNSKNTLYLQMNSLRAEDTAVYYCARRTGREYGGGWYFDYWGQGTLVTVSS
T1 sequence (VL, as listed by the source, chain 2 of 2): as the sequence (VL, as listed by the source, chain 2 of 2) above

B1: AJ540 (antibody, V domains shown)
VH: QIQLVQSGPELKKPGESVKISCKASGYTFTDYAMHWVKQVPGKGLKWMGWINTYTGKPTYADDFKGRFVFSLEASASTANLQISNLKNEDTANVFCAREGGGYYWYFDFWGPGTMVTVSS
VL: DIVMTQSPTSMSISVGDRVTMNCKANQNVDFNVDWYQQKTGQSPKLLIYKASNRYTGVPDRFTGSGSGTDFTFTISNMQAEDLAVYYCMQSNSFPLTFGSGTNLEIK
notes: Rat antibody from a hybridoma (culture supernatant in the ELISA); also called AJ540 antibody
Consider B1, for which, in the experiment with anti-FIXa-arm of ACE910, the binding result is given as “no binding”.

B2: AQ8 (antibody, V domains shown)
VH: EVNLVESGGGLVQPGGSMSLSCAASGFTFTDYYMSWVRQPPGKALEWLALIRNKANGYTTEYSASVKGRFTISRDNSQSILYLQMNALRAEDSATYYCARDSYYSYDGYAMDYWGQGTSVTVSS
VL: DIQMTQSPASLAASVGETITITCQASENIYFSLAWYQQKQGKSPQLLIYNTDSLKDGVPSRFSGSGSGTQYSMKINSMQPEDTATYFCRQSYDFPWTFGGGTKLEIK
notes: Mouse antibody from a hybridoma (culture supernatant in the ELISA); also called AQ8 antibody
On to B2, for which, in the experiment with anti-FX-arm of ACE910, the binding result was “no binding”.
